Six sequences from a protein production outcome set (Wang et al. 2014) can be followed below.

This data set can be described thus: label from the status in PepcDB records.
On to “MAIESGYILTTPCKNEEKSLPELAESIINQTITPKLWLIINDNSTDNSAKILRDIETKYNWIRVVTSEGQKRDLSFHYAEVVRYGLSLSLEISSAEKIPVEYIGLIDADMILEKNFFEKMIDRFEQDPNLGVASGSTAYFEAENLVTEKGRDNLPIGGLRVWRRECLIETGGFPLSYSADSVSNVLALLHGWETKKFEDIIGIQTRRTGSAEGLWKGYITKGESDYYRDYHPVYVLSKFIKYSFTHPFYIGIAYMEGYINGIVKIKKKICIPEVRRYYRKKHLEIGRYYAGKFKFKLLEHHHHHH”, for which the protein production entry is on record as “failed”.
With “MAIGMSELKKGLKIELGGVPYRIVEYQHVKPGKGAAFVRAKIKSFLDGKVIEKTFHAGDKCEEPNLVEKTMQYLYHDGDTYQFMDIESYEQIALNDSQVGEASKWMLDGMQVQVLLHNDKAISVDVPQVVALKIVETAPNFKGDTSSASKKPATLETGAVVQVPFHVLEGEIIKVNTETEEYLEKVK” the entry was “failed”; with “MAIIASNNSWDLYQLAVVILNYRTPQLVVDCLASLVSQIDPQTQQVIVVDNASGDDSVEEIEKAIANNNWQDWVRLLPSDVNGGFSAGNNLGIQAIRAENYLLLNSDTIVRPGAIQTLLVALEQYPEAGLFSPRLEWPDGTPQISCFRDHSPLSEMIDGARTSVITKLLQPFDVPIPVTEQSFEPQWTSFACVLIRRSVVEQIGLMDDGYFMYYDDIDYCRRARQAAWKIRYIPQASVVHLRGGSGSVKSDVASRKRPRPYLYASRSRYFAKFYGPLGLALANLGWLGGWGIAALREILGQKEPHTCDRQWQDIWFQWRQPLKPYRPELEHHHHHH”, “not failed”.
With “MAIKFQYNKTSLQQLEKQLKVRVRTLPIIKNKESALRMEVKRCKTEAAGLEERLEKQIQAYEAMFALWNEFDASLIKVSDVHLGIKKIAGVRVPLLENVDFDIRPYSLFNSPKWYSDGIYLLKGLAQTAIEREFMLAKLNLLEHARKKTTQKVNLFEKVQIPGYQDALRKIKRFMEDEENLSKSSQKILKSIQEKRKEAEA” the entry was “not failed”; with “MAIKVGINGFGRIGRSFFRASWGREEIEIVAINDLTDAKHLAHLLKYDSVHGIFKGSVEAKDDSIVVDGKEIKVFAQKDPSQIPWGDLGVDVVIEATGVFRDRENASKHLQGGAKKVIITAPAKNPDITVVLGVNEEKYNPKEHNIISNASCTTNCLAPCVKVLNEAFGVEKGYMVTVHAYTNDQRLLDLPHKDFRRARAAAINIVPTTTGAAKAIGEVIPELKGKLDGTARRVPVPDGSLIDLTVVVNKAPSSVEEVNEKFREAAQKYRESGKVYLKEILQYCEDPIVSTDIVGNPHSAIFDAPLTQVIDNLVHIAAWYDNEWGYSCRLRDLVIYLAERGL”, “not failed”; with “MAIRDAFGLTFSGATETGFTPYSQAVRELLCFIGDPVASVDRAILADPGFVMAHVFKGYLFGLATERDATAVARACHEAALPLAATTREEAHVLALGHLANGRWHDAARILEDVAIETPLDALALQVGHQIDFFTGNARMLRDRIARALPSWQSGMPGYHAILGMQAFGLEEMGDYTRAEKLGRTAVEIEPRDGWAQHAVAHVMEMQSRQRDGIVWMRANPEAWTKESFLQVHNWWHLALFHYDLGEIDQVLALYDGPIYGAPSAMALNMVDASALLWRLHLGGIDVGDRWAALAANWPKAGAGDYAFNDAHAMMAFVGAGLDGPALALLEAQREAMHGSGDNAAFTRDVGHPLTLAIKAFGEANYTEAVQLIRPIRAIANRFGGSHAQRDVIDLTLIEAALRAGDRALAGALTAERSMARPDSPLSVLLARRAADLSEN”, “failed”.
